Biological target: IL-21_mouse_WT Fc fusion protein (mouse; human, UniProt Q9ES17 18-146)
Assay: BLI

Binder | Kd
recombinant human IL-21R His tag (Acro Biosystems) (receptor, not shown: small tags and cut ends) not shown | 6.38 nM
mouse IL-21R, His-tagged (BLI antigen) (receptor, not shown: small tags and cut ends) not shown | 5.08 nM

Source: patent publication US12281147 (dated 2025)
